The values that follow come from patent publication US20220363770A1 (Amgen, published 2022).

To fix the notation:
B1: 4E4 single-point alanine variant antibody H_Y103A (antibody, V domains shown)
VH: QVQLVESGGGVVQPGRSLRLSCAASGFTFSSFGMHWVRQAPGKGLEWVAVISFDGSIKYSVDSVKGRFTISRDNSKNTLFLQMNSLRAEDTAVYYCARDRLNAYDSSGYYHYKYYGMAVWGQGTTVTVSS
VL: QSVLTQPPSVSAAPGQKVTISCSGSSSNIGNNYVSWYQQLPGTAPKLLIYDNNKRPSGIPDRFSGSKSGTSTTLGITGLQTGDEADYYCGTWDSRLSAVVFGGGTKLTVLG
notes: Recombinantly expressed as monoclonal antibody
B2: 4E4 single-point alanine variant antibody H_Y110A (antibody, V domains shown)
VH: QVQLVESGGGVVQPGRSLRLSCAASGFTFSSFGMHWVRQAPGKGLEWVAVISFDGSIKYSVDSVKGRFTISRDNSKNTLFLQMNSLRAEDTAVYYCARDRLNYYDSSGYAHYKYYGMAVWGQGTTVTVSS
VL: QSVLTQPPSVSAAPGQKVTISCSGSSSNIGNNYVSWYQQLPGTAPKLLIYDNNKRPSGIPDRFSGSKSGTSTTLGITGLQTGDEADYYCGTWDSRLSAVVFGGGTKLTVLG
notes: as for B1
B3: 4E4 single-point alanine variant antibody H_Y104A (antibody, V domains shown)
VH: QVQLVESGGGVVQPGRSLRLSCAASGFTFSSFGMHWVRQAPGKGLEWVAVISFDGSIKYSVDSVKGRFTISRDNSKNTLFLQMNSLRAEDTAVYYCARDRLNYADSSGYYHYKYYGMAVWGQGTTVTVSS
VL: QSVLTQPPSVSAAPGQKVTISCSGSSSNIGNNYVSWYQQLPGTAPKLLIYDNNKRPSGIPDRFSGSKSGTSTTLGITGLQTGDEADYYCGTWDSRLSAVVFGGGTKLTVLG
notes: as for B1
B4: 4E4 single-point alanine variant antibody H_Y109A (antibody, V domains shown)
VH: QVQLVESGGGVVQPGRSLRLSCAASGFTFSSFGMHWVRQAPGKGLEWVAVISFDGSIKYSVDSVKGRFTISRDNSKNTLFLQMNSLRAEDTAVYYCARDRLNYYDSSGAYHYKYYGMAVWGQGTTVTVSS
VL: QSVLTQPPSVSAAPGQKVTISCSGSSSNIGNNYVSWYQQLPGTAPKLLIYDNNKRPSGIPDRFSGSKSGTSTTLGITGLQTGDEADYYCGTWDSRLSAVVFGGGTKLTVLG
notes: as for B1
B5: 4E4 heavy chain Y104A single-point alanine variant antibody (antibody, V domains shown)
VH: QVQLVESGGGVVQPGRSLRLSCAASGFTFSSFGMHWVRQAPGKGLEWVAVISFDGSIKYSVDSVKGRFTISRDNSKNTLFLQMNSLRAEDTAVYYCARDRLNYADSSGYYHYKYYGMAVWGQGTTVTVSS
VL: QSVLTQPPSVSAAPGQKVTISCSGSSSNIGNNYVSWYQQLPGTAPKLLIYDNNKRPSGIPDRFSGSKSGTSTTLGITGLQTGDEADYYCGTWDSRLSAVVFGGGTKLTVLG
notes: Recombinantly expressed as a monoclonal antibody
B6: 4E4 heavy chain Y109A single-point alanine variant antibody (antibody, V domains shown)
VH: QVQLVESGGGVVQPGRSLRLSCAASGFTFSSFGMHWVRQAPGKGLEWVAVISFDGSIKYSVDSVKGRFTISRDNSKNTLFLQMNSLRAEDTAVYYCARDRLNYYDSSGAYHYKYYGMAVWGQGTTVTVSS
VL: QSVLTQPPSVSAAPGQKVTISCSGSSSNIGNNYVSWYQQLPGTAPKLLIYDNNKRPSGIPDRFSGSKSGTSTTLGITGLQTGDEADYYCGTWDSRLSAVVFGGGTKLTVLG
notes: as for B5
B7: 4E4 heavy chain Y103A single-point alanine variant antibody (antibody, V domains shown)
VH: QVQLVESGGGVVQPGRSLRLSCAASGFTFSSFGMHWVRQAPGKGLEWVAVISFDGSIKYSVDSVKGRFTISRDNSKNTLFLQMNSLRAEDTAVYYCARDRLNAYDSSGYYHYKYYGMAVWGQGTTVTVSS
VL: QSVLTQPPSVSAAPGQKVTISCSGSSSNIGNNYVSWYQQLPGTAPKLLIYDNNKRPSGIPDRFSGSKSGTSTTLGITGLQTGDEADYYCGTWDSRLSAVVFGGGTKLTVLG
notes: as for B5
B8: 4E4 heavy chain Y110A single-point alanine variant antibody (antibody, V domains shown)
VH: QVQLVESGGGVVQPGRSLRLSCAASGFTFSSFGMHWVRQAPGKGLEWVAVISFDGSIKYSVDSVKGRFTISRDNSKNTLFLQMNSLRAEDTAVYYCARDRLNYYDSSGYAHYKYYGMAVWGQGTTVTVSS
VL: QSVLTQPPSVSAAPGQKVTISCSGSSSNIGNNYVSWYQQLPGTAPKLLIYDNNKRPSGIPDRFSGSKSGTSTTLGITGLQTGDEADYYCGTWDSRLSAVVFGGGTKLTVLG
notes: as for B5

T2 sequence (Q16602 23-133, chain 1 of 2): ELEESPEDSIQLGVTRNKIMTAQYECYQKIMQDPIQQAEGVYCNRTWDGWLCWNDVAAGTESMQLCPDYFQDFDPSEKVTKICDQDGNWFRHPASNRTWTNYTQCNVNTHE
T2 sequence (O60894 26-117, chain 2 of 2): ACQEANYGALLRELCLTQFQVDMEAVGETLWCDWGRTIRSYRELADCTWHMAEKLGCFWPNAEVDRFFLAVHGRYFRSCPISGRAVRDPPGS
T1 sequence (Q16602 23-133, chain 1 of 2): as the sequence (Q16602 23-133, chain 1 of 2) above
T1 sequence (O60894 26-117, chain 2 of 2): as the sequence (O60894 26-117, chain 2 of 2) above

One experiment addresses T1, soluble CGRP receptor (ECDs of human CRLR and human RAMP1) (human, UniProt Q16602 23-133; O60894 26-117).
T1 construct: complex treated with thrombin before crystallization; also called soluble human CGRP receptor; CRLR ECD/RAMP1 ECD heterodimer
Nature of the experiment: SPR (Biacore T200), antibody captured, soluble CGRP receptor as analyte.
Turning to B1, the binding result is given as “no binding (tested: 1000 nM (highest analyte concentration))”.
On the same count and under the same terms, the entry for B2 is “no binding (tested: 1000 nM (highest analyte concentration))”; for B3 it is “no binding (tested: 1000 nM (highest analyte concentration))”; for B4 it is “no binding (tested: 1000 nM (highest analyte concentration))”.

Another experiment concerns the target T2, soluble CGRP receptor (extracellular domains of human CRLR and human RAMP1) (human, UniProt Q16602 23-133; O60894 26-117).
T2 construct: the tag and the thrombin site are not described; also called soluble human CGRP receptor; CGRP receptor ECD
Nature of the experiment: SPR (Biacore T200), antibody captured by goat anti-human Fc, soluble CGRP receptor as analyte.
For the molecule B5, the binding result is “no binding (tested: soluble CGRP receptor up to 1000 nM)”.
Still for that read-out and setting: the entry for B6 is “no binding (tested: soluble CGRP receptor up to 1000 nM)”; for B7 it is “no binding (tested: soluble CGRP receptor up to 1000 nM)”; for B8 it is “no binding (tested: soluble CGRP receptor up to 1000 nM)”.
